US8287851B2, “Use of interleukin 17E for the treatment of cancer” (Lorus Therapeutics Inc., priority 2005, dated 2012)

Experiments:
[1] = tested on: splenic B cells; assay: Splenic B cell numbers and activation in C8161 tumour bearing mice (flow cytometry); type: in vivo, CD-1 nude mice; settings: C8161-engrafted mice
Experimental: The increase in B cells was examined in BD-BRM-treated CD-1 nude mice. Briefly, the mice with human melanoma xenografts were treated for 4 weeks with either BD-BRM or PBS, as described in the preceding examples. Splenocytes were examined by flow cytometry for B cells using anti-IgM antibodies.
Antibodies fluorescein isothiocyanate (FITC)-anti-mouse IgM (eB121-15F9; IgG2a), phycoerythrin (PE) anti-mouse CD86 (GL1; IgG2a) and PE anti-mouse CD80 (16-10A1; hamster IgG) were purchased from eBioscience (San Diego, Calif.).
Flow cytometry was performed as described above. Briefly, splenocytes were isolated individually from CD1-nude C8161 tumour bearing mice treated 4 weeks with BD-BRM or PBS. Red blood cells were removed, followed by surface staining with (A) anti-IgM antibody-FITC or (B) anti-IgM-FITC and anti-CD80-PE+anti-CD86-PE by flow cytometry.
The effect of interleukin 17E on increased percentage of splenic eosinophils and B cells and the proportion of activated splenic B cells was examined. CD1-nude mice engrafted with C8161 human melanoma cells were treated with either PBS, murine IL-17E, or human IL-17E as described previously. At the endpoint of the experiment, spleens were isolated from treated mice, stained with markers specific for eosinophils (CCR3+), B cells (either IgM+ or CD19+), and B cell activation (CD-80+, CD86+), and examined by flow cytometry. Flow cytometry was performed as described in Example 4 above.
The percentage of eosinophils was determined by surface staining the granulocyte-gated population with phycoerythrin (PE)-conjugated anti-mouse CCR3. The percentage of B cells in the spleen was examined by surface staining with phycoerythrin (PE)-conjugated anti-mouse CD19. The proportion of activated splenic B cells was determined by staining with FITC-conjugated anti-mouse IgM together with PE-conjugated anti-mouse CD80 and PE-conjugated anti-mouse CD86. Statistical analysis was performed to compare eosinophil and B cell numbers/activation. P values <0.01 were considered to be significant.
In order to confirm that the effect of BD-BRM on splenic B cells as described in Example 5 is due to interleukin 17E activity, the effect of interleukin 17E on numbers and activation status of splenic B cells was examined. CD1-nude mice engrafted with C8161 human melanoma cells were treated with either PBS or murine IL-17E as described previously. At the endpoint of the experiment, spleens were isolated from treated mice, stained with markers specific for B cells (IgM+), and B cell activation (CD-80+, CD86+), and examined by flow cytometry. Flow cytometry was performed as described in Example 4 above.
Splenocytes were analyzed for the percentage of B cells by surface staining with FITC-conjugated anti-mouse IgM antibodies. Activated B cells were determined by surface staining with FITC-conjugated-anti-mouse IgM antibodies, and PE-conjugated-anti-mouse CD80 and PE-conjugated-anti-mouse CD86. Statistical analysis was performed to compare B cell numbers/activation. P values <0.01 were considered to be significant.

[2] = tested on: human melanoma C8161 xenograft; assay: Antitumour activity in murine xenograft model of human melanoma C8161; type: in vivo, CD-1 athymic nude mice
Experimental: Human melanoma cell line C8161 was grown in RPMI 1640 medium (Wisent Inc., St. Bruno, QC) with 10% fetal bovine serum, penicillin (100 U/ml), streptomycin ([…]) (Wisent Inc.) at 37° C. under 95% air and 5% CO2, and maintained with routine media changes. Adherent C8161 cells were passaged by trypsinization with 0.025% trypsin. CD-1 athymic nude mice and C57BL/6 (6-8 weeks old, 20-25 g, female) were purchased from Charles River (Montreal, QC).
Human tumour xenografts were established in mice. Briefly, human tumour cells were harvested at approximately 80% confluence in cell culture medium and resuspended in sterile PBS. Ten million tumour cells in 100 μl were subcutaneously implanted into the right flank of CD-1 athymic nude mice. When tumours reached a volume of 50-100 mm^3, mice were randomly separated into two groups of 10 animals and treated with BD-BRM until the endpoint of the experiment. Anti-tumour activity was evaluated and tumour volume was estimated by caliper measurements, using the formula: Length×Width×Height×/2. Tumour weight was determined from tumour tissue surgically excised from the animal on the last day of the experiment. The percentage of inhibition (%)=(mean tumour weight of control animals−mean tumour weight of drug-treated group)/mean tumour weight of controls×100. A p value of ≦0.05 was considered to be statistically significant.
Mice bearing human melanoma C8161 xenograft were treated intraperitoneally with BD-BRM or PBS for 4 weeks. Briefly, human melanoma C8161 cells were subcutaneously injected into the right flank of CD-1 nude mice as described above. The mice were then administered i.p. with 0.2 ml of PBS or BD-BRM daily when tumours reached a volume of 50-100 mm^3.
Recombinant human IL-17E was obtained from PeproTech, Inc., and is present in the preparation as a 33.8 kDA disulphide linked homodimer of two 145 amino acid polypeptide chains. The predominant form of IL-17E in this preparation is the form starting at Tyr 33 of the human sequence provided by GenBank Accession No. AAG40848. Human melanoma C8161 cells (10^6 cells in 100 μl PBS) were subcutaneously implanted into the right flank of CD-1 athymic nude mice. When tumours reached a volume of 50-100 mm^3, mice were randomly separated into two groups of 10 animals and treated as follows:
Group I: 100 μl of PBS intraperitoneally (i.p.) per mouse every other day until the endpoint of the experiment; and
Group II: 0.04 mg/kg of recombinant human IL-17E intraperitoneally (i.p.) every other day until the endpoint of the experiment.
The size of the tumours was measured by caliper measurements throughout the experiment. Tumour volume was determined using the formula (Length×Width×Height/2). T-tests were performed to assess the statistical significance of differences in tumour sizes. A p value of ≦0.05 was considered to be statistically significant.
The effect of human IL-17E dosage on antitumour efficacy was examined using a murine xenograft model of human melanoma tumour growth. Human melanoma C8161 cells (10^6 cells in 100 μl PBS) were subcutaneously implanted into the right flank of CD-1 athymic nude mice. When tumours reached a volume of 50-100 mm^3, mice were randomly separated into four groups of 10 animals and treated as follows:
Group I: 100 μl of PBS subcutaneously (s.c.) per mouse every other day until the endpoint of the experiment; […]

Molecule | percentage of splenic B cells (CD19+) as compared to PBS ([1]; Example 21) | proportion of activated B cells (IgM, CD80, CD86) in the spleen as compared to PBS ([1]; Example 21) | percentage of splenic B cells (IgM+) as compared to PBS ([1]; Example 22) | proportion of activated B cells (IgM, CD80, CD86) in the spleen as compared to PBS ([1]; Example 22) | antitumour efficacy, comparison of i.p. and i.v. routes of administration ([2]; 0.04 mg/kg murine IL-17E every other day) | tumour growth (tumour weight) vs PBS ([2]; 0.04 mg/kg murine IL-17E intraperitoneally every other day) | tumour growth (tumour weight) vs PBS ([2]; 0.04 mg/kg murine IL-17E intravenously every other day) | tumour growth (tumour volume) as compared to PBS ([2]; 0.04 mg/kg recombinant human IL-17E i.p. every other day) | antitumour effect with increasing doses ([2]; 0.0018, 0.016, 0.144 mg/kg s.c. every other day)
murine IL-17E: Murine IL-17E from R&D Systems; predominant form starting at Val 17 of GenBank NP 542767 (protein) VSLRIQEGCSHLPSCCPSKEQEPPEEWLKWSSASVSPPEPLSHTHHAESCRASKDGPLNSRAISPWSYELDRDLNRVPQDLYHARCLCPHCVSLQTGSHMDPLGNSVPLYHNQTVFYRRPCHGEEGTHRRYCLERRLYRVSLACVCVRPRVMA | significantly increased | significantly increased | significantly increased | significantly increased | approximately equivalent antitumour efficacy | inhibit tumour growth | inhibit tumour growth | – | –
human IL-17E: Recombinant human IL-17E from PeproTech; two 145 amino acid chains, predominant form starting at Tyr 33 of GenBank AAG40848 (protein, listed as Homo sapiens) YSHWPSCCPSKGQDTSEELLRWSTVPVPPLEPARPNRHPESCRASEDGPLNSRAISPWRYELDRDLNRLPQDLYHARCLCPHCVSLQTGSHMDPRGNSELLYHNQTVFYRRPCHGEKGTHKGYCLERRLYRVSLACVCVRPRVMG | significantly increased | significantly increased | – | – | – | – | – | significantly inhibit tumour growth | dose-response effect
